For series [1], the target named is full-length COUP-TFII (mouse expression plasmid) (mouse) (UniProt P43135).
Another series deals with T1, COUP-TFII (Homo sapiens, UniProt P24468, C174S).
T1 construct: gene NR2F2; LBD (residues 173–414 with C174S mutation), 6X His-GST fusion protein
T1 sequence (P24468 173-414 C174S): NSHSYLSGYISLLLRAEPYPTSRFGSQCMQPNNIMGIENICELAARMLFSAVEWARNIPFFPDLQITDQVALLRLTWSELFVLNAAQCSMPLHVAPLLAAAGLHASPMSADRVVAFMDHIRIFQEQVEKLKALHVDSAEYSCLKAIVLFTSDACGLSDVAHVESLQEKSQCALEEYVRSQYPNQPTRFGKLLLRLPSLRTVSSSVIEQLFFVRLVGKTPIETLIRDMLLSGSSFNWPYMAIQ
Briefly: AlphaScreen ligand-dependent coactivator peptide recruitment to purified LBD; also NGFI-A luciferase reporter in COS-7 cells. Type of series: binding.

Series [2] deals with the molecule itself. Description: crystal structure; ligand-free LBD, no cofactor peptide; hanging drops at 20 °C, well buffer 1.3 M or 1.5 M imidazole pH 5.6 and 1% Pluronic F68; space group C2, one LBD per asymmetric unit, symmetric dimer through crystal packing.
Series [3] concerns the target COUP-TFII L364A/L365A double mutant (mouse) (UniProt P43135).
The target in series [4] is T2, 6X His-GST-COUP-TFII LBD fusion protein (human, UniProt P24468 173-414, C174S).
T2 construct: The limits and C174S come from the protein preparation paragraph; also called receptor LBD; source: E. coli BL21 (DE3), purified as a 6X His-GST fusion protein; not shown: 6x Histidine, N-terminal, kept; GST, N-terminal, kept
T2 sequence (looked up): T1 sequence (P24468 173-414 C174S)
Briefly: AlphaScreen or HTRF; approximately 0.4 μM 6X His-GST receptor LBD and 0.1 μM biotinylated peptide, 20 μg/ml donor and acceptor beads; 50 mM MOPS, 50 mM NaF, 50 mM CHAPS, 0.1 mg/ml bovine serum albumin, pH 7.4; with 50 μM 9-cis-retinoic acid. The following applies: both partners purified. For orientation: In Alpha technology, singlet oxygen from a donor bead excites a nearby acceptor bead.

Where no end group is shown, it is not given here. Where only a bound is given, the exact number is not on record here.

“SRC-3 (wild type) (from UniProt Q9Y6Q9 1-1424) (natural protein)” showed an NGFI-A promoter luciferase reporter in COS-7 cells, COUP-TFII cotransfected with SRC-3, relative to COUP-TFII alone in series [1] above 2 fold.
For orientation: EC50 means the concentration giving half of the maximal effect. The low end stands for a more potent agent, the high end for a less potent agent. The molecule `CC1=C(/C=C/C(C)=C\C=C\C(C)=C\C(=O)O)C(C)(C)CCC1` [9cRA, 9-cis-retinoic acid] came in with a concentration for a half-maximal effect (EC50) on COUP-TFII of 17 µM.
Still for that read-out and setting: for `CC1=C(/C=C/C(C)=C/C=C/C(C)=C/C(=O)O)C(C)(C)CCC1` [ATRA, all-trans-retinoic acid] the value was 26 µM.

B1: human COUP-TFII ligand-binding domain (residues 173–414, C174S), tag cleaved (domain or fragment, UniProt P24468 173-414, looked up)
chain: T1 sequence (P24468 173-414 C174S)
notes: Ligand-free; One LBD per asymmetric unit; The model lacks 13 residues between α1 and α3, 17 residues between α5 and α6, and the C-terminal seven residues; also called COUP-TFII LBD; apo-COUP-TFII; source: E. coli BL21 (DE3), purified (glutathione-sepharose, thrombin cleavage, Ni2+ chelating sepharose); not shown: 6x Histidine, N-terminal, cleaved; GST, N-terminal, cleaved
For B1, the binding result in series [2] is reported as “binds”.

B2: COUP-TFII L364A/L365A double mutant (natural protein)
chain: MAMVVSTWRDPQDEVPGSQGSQASQAPPVPGPPPGAPHTPQTPGQGGPASTPAQTAAGGQGGPGGPGSDKQQQQQHIECVVCGDKSSGKHYGQFTCEGCKSFFKRSVRRNLSYTCRANRNCPIDQHHRNQCQYCRLKKCLKVGMRREAVQRGRMPPTQPTHGQFALTNGDPLNCHSYLSGYISLLLRAEPYPTSRFGSQCMQPNNIMGIENICELAARMLFSAVEWARNIPFFPDLQITDQVALLRLTWSELFVLNAAQCSMPLHVAPLLAAAGLHASPMSADRVVAFMDHIRIFQEQVEKLKALHVDSAEYSCLKAIVLFTSDACGLSDVAHVESLQEKSQCALEEYVRSQYPNQPTRFGKLAARLPSLRTVSSSVIEQLFFVRLVGKTPIETLIRDMLLSGSSFNWPYMAIQ
As for B2, in series [3], the activation of the NGFI-A promoter luciferase reporter in COS-7 cells, relative to wild-type COUP-TFII was determined as 20%.
As for AENQRGPLESKGHKKLLQLLTSS (also: biotinylated, position not given here) [biotinylated SRC3–1 peptide], the binding result in series [4] is “binds”.
